# Target: T1, QCP (bacteriophage Qβ coat protein) (bacteriophage Qβ, UniProt P03615 2-133)
# T1 sequence: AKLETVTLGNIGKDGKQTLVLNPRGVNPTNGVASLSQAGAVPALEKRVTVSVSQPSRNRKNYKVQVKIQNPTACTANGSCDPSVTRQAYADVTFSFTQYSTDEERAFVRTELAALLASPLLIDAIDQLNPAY
# Test: SPR
row,Binder,Kd [nM]
1,CCAUUAGCUAAGCUAAUGGAAAAAAAAAAAAAAAAAAAAAAAA (structured_RNA) [A14],17.8
2,CCUCUAGCUAAGCUAUAGGAAAAAAAAAAAAAAAAAAAAAAAA (structured_RNA) [A17],90.8
3,CCUUUAGCUAAGCUAAUGGAAAAAAAAAAAAAAAAAAAAAAAA (structured_RNA) [A16],28.9
4,CCCUUAGCUAAGCUAAGGUAAAAAAAAAAAAAAAAAAAAAAAA (structured_RNA) [A19],80.4
5,CCCUUAGCUAAGCUAAGUGAAAAAAAAAAAAAAAAAAAAAAAA (structured_RNA) [A18],16
6,CCGUUAGCUAAGCUAAUGGAAAAAAAAAAAAAAAAAAAAAAAA (structured_RNA) [A15],86.2
